According to US20090214662A1 (UNIVERSITY OF MARYLAND BALTIMORE, published 2009):

Legend:
[1] = target: Lactobacillus brevis ATCC 8287 SlpA surface layer protein (Lactobacillus brevis ATCC 8287) (UniProt Q05044); assay: SPR (BIAcore 3000), Kd of laminin compared with Kd of fibronectin on immobilised SlpA
[2] = target: Lactobacillus brevis ATCC 8287 SlpA surface layer protein (Lactobacillus brevis ATCC 8287) (UniProt Q05044); assay: SPR (BIAcore 3000), SlpA immobilised on CM5 chip, fibronectin injected, 1:1 Langmuir fit
[3] = target: Lactobacillus brevis ATCC 8287 SlpA surface layer protein (Lactobacillus brevis ATCC 8287) (UniProt Q05044); assay: SPR (BIAcore 3000), immobilised SlpA preincubated with 1 mM benzamidine, fibronectin injected, steady-state evaluation
[4] = target: Lactobacillus brevis ATCC 8287 SlpA surface layer protein (Lactobacillus brevis ATCC 8287) (UniProt Q05044); assay: SPR (BIAcore 3000), SlpA immobilised on CM5 chip, collagen injected, 1:1 Langmuir fit
[5] = target: T1, Laminin (basement membrane of Engelbreth-Holm-Swarm mouse sarcoma) (mouse, UniProt P19137 25-3083; P02469 22-1786; P02468 34-1607); assay: SPR (BIAcore 3000), immobilised SlpA preincubated with 1 mM benzamidine, laminin injected, 1:1 Langmuir fit
T1 construct: mature; Bought from Sigma

[6] = target: T1, Laminin (basement membrane of …); assay: SPR (BIAcore 3000), SlpA immobilised on CM5 chip, laminin injected, 1:1 Langmuir fit
Procedure: (§1) The interaction between SlpA and extracellular matrix components was evaluated by surface plasmon resonance on a BIAcore 3000 instrument. Purified SlpA protein in 5M LiCl was dialyzed against double-distilled water overnight. Monomeric and/or oligomeric protein was separated from self-assembled material by centrifugation at 20,000×g for 20 min. SlpA protein (50 ug/ml in 10 mM Sodium Phosphate pH 7.4) was covalently coupled to CM5 carboxylated dextran chips using N-hydroxysuccinimide (NHS) chemistry. […] Kinetic analysis was carried out at 25° C. in 10 mM HEPES, 150 mM NaCl, 3 mM EDTA, 0.005% surfactant P20, pH 7.4. […] Binding was determined experimentally by comparing the number of RU's observed as a function of time to an activated and blocked flow cell containing no linked protein. […] Data were evaluated using the BIAevaluation 4.1 software. The association and dissociation data were modeled with the BIAevaluation 4.1 software (Pharmacia Biosensor AB). Following subtraction of data from the control flow cell, the binding data produced for the various protein concentrations were fitted simultaneously, assuming the 1:1 Langmuir model.
(§2) The association and dissociation rate constants were estimated from the binding data at different concentrations using the BIAevaluation software and from these values the binding constant was calculated (Table 2).

[7] = target: T2, Fibrinogen (human plasma) (human, UniProt P02671 20-629; P02675 31-491; P02679 27-453, limits assumed); assay: SPR (BIAcore 3000), SlpA immobilised on CM5 chip, fibrinogen injected; Table 2 value
T2 construct: mature; Bought from Calbiochem
T2 sequence (looked up) 1: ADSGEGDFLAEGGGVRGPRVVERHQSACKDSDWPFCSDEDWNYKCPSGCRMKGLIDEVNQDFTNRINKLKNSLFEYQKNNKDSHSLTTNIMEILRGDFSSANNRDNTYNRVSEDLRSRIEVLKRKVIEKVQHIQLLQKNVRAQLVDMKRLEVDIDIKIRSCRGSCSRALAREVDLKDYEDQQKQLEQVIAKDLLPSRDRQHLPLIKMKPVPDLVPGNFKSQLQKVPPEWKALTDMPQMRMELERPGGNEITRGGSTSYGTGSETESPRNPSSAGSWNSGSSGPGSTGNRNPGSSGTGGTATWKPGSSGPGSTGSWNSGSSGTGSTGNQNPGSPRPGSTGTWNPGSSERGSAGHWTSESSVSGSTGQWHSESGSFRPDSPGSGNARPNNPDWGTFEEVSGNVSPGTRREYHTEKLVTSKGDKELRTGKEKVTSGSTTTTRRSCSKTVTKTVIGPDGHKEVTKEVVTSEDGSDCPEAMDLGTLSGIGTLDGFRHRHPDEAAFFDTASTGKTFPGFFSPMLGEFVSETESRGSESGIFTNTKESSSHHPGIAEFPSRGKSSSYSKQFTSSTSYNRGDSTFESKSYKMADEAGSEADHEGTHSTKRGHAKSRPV
T2 sequence (looked up) 2: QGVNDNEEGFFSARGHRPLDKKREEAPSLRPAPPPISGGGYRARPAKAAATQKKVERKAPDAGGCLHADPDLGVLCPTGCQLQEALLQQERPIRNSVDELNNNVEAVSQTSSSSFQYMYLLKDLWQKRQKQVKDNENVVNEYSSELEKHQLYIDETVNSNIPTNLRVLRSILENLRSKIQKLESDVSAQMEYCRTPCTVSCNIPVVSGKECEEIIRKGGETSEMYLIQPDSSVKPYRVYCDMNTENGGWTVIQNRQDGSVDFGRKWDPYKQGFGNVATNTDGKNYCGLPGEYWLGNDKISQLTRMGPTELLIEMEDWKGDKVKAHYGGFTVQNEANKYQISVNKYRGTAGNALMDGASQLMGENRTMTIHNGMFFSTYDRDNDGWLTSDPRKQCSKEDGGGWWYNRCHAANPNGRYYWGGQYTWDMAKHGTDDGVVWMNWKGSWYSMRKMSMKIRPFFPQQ
T2 sequence (looked up) 3: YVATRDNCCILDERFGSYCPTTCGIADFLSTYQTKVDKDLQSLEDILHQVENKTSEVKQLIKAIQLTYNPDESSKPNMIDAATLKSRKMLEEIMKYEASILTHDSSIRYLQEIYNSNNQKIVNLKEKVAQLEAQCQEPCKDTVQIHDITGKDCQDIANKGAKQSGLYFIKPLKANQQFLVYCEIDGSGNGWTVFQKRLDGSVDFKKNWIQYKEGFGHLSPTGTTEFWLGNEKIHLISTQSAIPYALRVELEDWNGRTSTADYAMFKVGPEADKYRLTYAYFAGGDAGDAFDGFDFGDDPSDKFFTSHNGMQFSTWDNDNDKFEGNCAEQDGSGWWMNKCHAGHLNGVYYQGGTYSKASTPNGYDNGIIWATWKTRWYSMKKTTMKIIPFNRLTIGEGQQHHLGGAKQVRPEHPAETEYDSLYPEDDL
Procedure: as §1, §2

## Laminin (basement membrane of Engelbreth-Holm-Swarm mouse sarcoma), P19137 25-3083; P02469 22-1786; P02468 34-1607
[1]
  fold higher affinity than for fibronectin: 3 fold

## Fibronectin (human plasma) (from UniProt P02751 32-2477)
[2]
  Kd: 89.8 nM
  koff: 0.00632 s⁻¹
[3]
  Kd: 30.1 µM

## Collagen (human placenta Type IV) (from UniProt P02462 28-1440; P08572 26-1484)
[4]
  Kd: 31.8 µM
  koff: 0.0011 s⁻¹

B1: Lactobacillus brevis ATCC 8287 SlpA surface layer protein (other, UniProt Q05044 31-465, looked up)
chain: KSYATAGAYSTLKTDAATRNVEATGTNALYTKPGTVKGAKVVASKATMAKLASSKKSADYFRAYGVKTTNRGSVYYRVVTMDGKYRGYVYGGKSDTAFAGGIKSAETTTKADMPARTTGFYLTDTSKNTLWTAPKYTQYKASKVSLYGVAKDTKFTVDQAATKTREGSLYYHVTATNGSGISGWIYAGKGFSTTATGTQVLGGLSTDKSVTATNDNSVKIVYRTTDGTQVGSNTWVTSTDGTKAGSKVSDKAADQTALEAYINANKPSGYTVTNPNAADATYGNTVYATVSQAATSKVALKVSGTPVTTALTTADANDKVAANDTTANGSSVAGSTVYAAGTKLAQLTTDLTGEKGQVVTLTAIDTDLEDATFTGTTTYYSDLGKAYHYTYTYNKDSAASSNASTQFGSNVTGTLTATLVMGKSTATANGTTWFN
notes: mature; Native protein purified from the bacterium; The soluble monomeric and/or oligomeric fraction after dialysis and centrifugation was covalently coupled (NHS chemistry) to a CM5 chip, about 1700 RU; also called S-layer protein; Surface Layer Protein A
[5]
  Kd: 66 nM
  koff: 0.002 s⁻¹
[6]
  Kd: 26.7 nM
  koff: 0.0013 s⁻¹
[7]
  Kd: 26.1 µM
